In US20260216366A1, “CONJUGATE AND USES THEREOF” (Full-Life Technologies UK Limited, priority 2022, published 2026):

T1: human FAP-hFc (human, UniProt Q12884 26-760)
T1 construct: Coated on the ELISA plate as human FAP-hFc; also called FAP-alpha; not shown: human Fc (hFc)
T1 sequence (looked up): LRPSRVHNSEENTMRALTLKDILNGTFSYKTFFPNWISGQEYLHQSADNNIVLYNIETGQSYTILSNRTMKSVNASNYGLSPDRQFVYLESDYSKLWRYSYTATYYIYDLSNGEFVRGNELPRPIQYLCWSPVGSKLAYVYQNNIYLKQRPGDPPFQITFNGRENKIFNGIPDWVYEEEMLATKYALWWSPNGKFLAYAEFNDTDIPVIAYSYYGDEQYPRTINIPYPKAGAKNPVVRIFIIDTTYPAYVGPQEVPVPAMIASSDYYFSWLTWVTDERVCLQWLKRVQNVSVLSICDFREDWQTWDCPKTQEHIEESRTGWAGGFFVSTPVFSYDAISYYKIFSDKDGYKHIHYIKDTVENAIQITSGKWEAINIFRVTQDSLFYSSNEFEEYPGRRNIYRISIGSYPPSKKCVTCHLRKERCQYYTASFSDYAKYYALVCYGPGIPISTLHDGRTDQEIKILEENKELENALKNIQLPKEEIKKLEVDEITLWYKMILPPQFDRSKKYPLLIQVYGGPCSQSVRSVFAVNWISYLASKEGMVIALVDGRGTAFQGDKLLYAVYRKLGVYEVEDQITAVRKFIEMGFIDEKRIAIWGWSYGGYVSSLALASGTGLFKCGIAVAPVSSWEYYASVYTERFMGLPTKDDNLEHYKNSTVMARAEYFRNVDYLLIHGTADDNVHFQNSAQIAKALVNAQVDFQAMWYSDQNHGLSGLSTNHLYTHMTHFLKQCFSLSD


Assays:
[1] = tested on: FAP expressing HEK293-hFAP cells; assay: In vivo SPECT imaging of 177Lu-labeled FAP conjugates; parameters: species or system female athymic nude mice; conditions: FIG. 5, 30 MBq/mouse i.v., at different time points
Experimental: In vivo biodistribution of FAP conjugates was analyzed by SPECT imaging via ^177Lu labeling. Briefly, the FAP conjugates were labeled by ^177Lu with a molar activity of 1 MBq/μg at 37° C. for 60 min and purified by size-exclusion chromatography, followed by analysis of radioactive purity through radio-TLC and radio-HPLC on the same day of labelling. The release criteria for radio-labelled sample was ≥90% radiochemical purity.
(§1) For the imaging study, female athymic nude mice (approximately 6-8 weeks old) were each inoculated with 5×10^6 FAP expressing HEK293-hFAP cells via subcutaneous injection into the shoulder. When the tumor volume reached to about 150 to 250 mm^3, the animal was injected with the labeled conjugate at a dose of 30 MBq/mouse by a single bolus intravenous injection in tail vein. Animals were then subject to whole-body static SPECT followed by CT at different time points under isoflurane anaesthesia.

[2] = Pharmacokinetic study of CLDN18.2-linker conjugates (serum ELISA, NCA); assay type: in vivo, BALB/c mice; conditions: FIG. 2; CLDN18.2 conjugate of the named linker compared to the control group
Experimental: The in vivo pharmacokinetic profile of the CLDN18.2-linker conjugates was analyzed. Briefly, BALB/c mice were administered with the conjugates by intravenous injection at a dose of about 1 mg/kg. Then, whole blood of the animal was collected at different time points over 48 hours.
(§2) The whole blood was collected into a tube without anticoagulation and maintained at room temperature for more than 30 minutes, followed by centrifuge at approximately 5000 rpm at 4° C. for 5 minutes to obtain serum. Concentration of the conjugates in serum was then measured by ELISA using HRP-labeled goat anti-alpaca IgG VHH domain secondary antibody. The data was further analyzed using PK Solver software, and the […] (NCA) was used to evaluate the pharmacokinetic parameters, as shown in Table 7 and FIG. 2.

[3] = Pharmacokinetic study of FAP-linker conjugates (serum ELISA, NCA); assay type: in vivo, BALB/c mice; conditions: FIG. 3; FAP conjugate of the named linker compared to the control group
Experimental: he in vivo pharmacokinetic profile of the FAP-linker conjugates was analyzed. Briefly, BALB/c mice were administered with the conjugates by intravenous injection at a dose of about 1 mg/kg. Then, whole blood of the animal was collected at different time periods over 48 hours.
as §2, with “centrifugated” for “centrifuge”, “8” for “7”, “3.” for “2.”

[4] = tested on: CLDN18.2 HEK293T cells; assay: In vivo SPECT imaging of 111In-labeled CLDN18.2 conjugates; parameters: species or system female athymic nude mice; conditions: FIG. 4, 10 MBq/mouse i.v., over 48 hours, compared to the control group
Experimental: In vivo biodistribution of the CLDN18.2 conjugates was analyzed by SPECT imaging via ^111In labeling. Briefly, the CLDN18.2 conjugates were labeled by ^111In at 30° C. for 60 min and purification by NAP-5 column. followed by analysis of radioactive purity through radio-TLC and radio-HPLC on the same day of labelling. The release criteria for radio-labelled sample was ≥90% radiochemical purity.
as §1, with “CLDN18.2 HEK293T” for “FAP expressing HEK293-hFAP”, “200” for “150”, “300” for “250”, “10” for “30”, “anaesthesia. […] In addition, the tumor/kidney ratio was increased around 5-10 folds compared to the control group.” for “anaesthesia.”

[5] = target: T1, human FAP-hFc; assay: ELISA, plate coated with human FAP-hFc, HRP anti-sdAb detection
Experimental: Binding affinities of the prepared conjugates with tumor antigen was evaluated by ELISA. […] On the next day, the plate was washed by 0.05% PBST and blocked by 10% StartingBlock buffer (Thermo, #37538) at room temperature for 1 hr. Then, 100 μL of serial diluted conjugate samples in 1% StartingBlock buffer was added to the plate. The plate was further incubated at room temperature for 2 hrs under shaking at 100 rpm and washed by 0.05% PBST. Then 100 μL 0.4 μg/mL HRP-conjugated anti-sdAb secondary antibody (Jackson, #128-035-232) was added and subject to 1 hr incubation at room temperature under shaking at 100 rpm. The plate was then washed by 0.05% PBST and developed using TMB solution (KPL, #5120-00820).

Molecule | retention of the FAP conjugates in tumor [1] | blood circulation of the CLDN18.2 conjugates [2] | blood circulation of the FAP conjugates [3] | retention of the CLDN18.2 conjugates in tumor [4] | EC50 [5]
O=C(O)CCC(NC(=O)C(CCCCNC(=O)CCCc1ccc(I)cc1)NC(=O)CNC(=O)CCC(C(=O)O)N1CCN(CC(=O)O)CCN(CC(=O)O)CCN(CC(=O)O)CC1)C(=O)NCc1ccc(N=C=S)cc1 (centres unmarked) [L007] | increasing retention | significantly prolonged blood circulation | significantly prolonged blood circulation | significantly increased retention | 
O=C(O)CN1CCN(CC(=O)O)CCN(C(CCC(=O)NCC(=O)NC(CCCCNC(=O)CCCc2ccc(I)cc2)C(=O)NCc2ccc(N=C=S)cc2)C(=O)O)CCN(CC(=O)O)CC1 (centres unmarked) [L009] |  | significantly prolonged blood circulation |  | significantly increased retention | 
FAP-L007 (VHH, functional linker L007 conjugated to the sdAb, residue not stated; DOL 0.68, also called FAP sdAb-linker L007 conjugate) VHH: QVQLLESGGGLVQPGGSLRLSCAASGFGFGNSLMSWVRRAPGKGLEWVSTIYPRGSFTDYADSVKGRFTISRDNSRNTLYLQMNSLRAEDTAVYYCATGWGRSSDYDPPGQGTLVTVSS |  |  |  |  | 60.3 pM
FAP-DOTAGA (VHH, DOTAGA chelator conjugated to the sdAb, residue not stated; DOL 0.42, also called FAP sdAb conjugated with DOTAGA (control)) VHH: QVQLLESGGGLVQPGGSLRLSCAASGFGFGNSLMSWVRRAPGKGLEWVSTIYPRGSFTDYADSVKGRFTISRDNSRNTLYLQMNSLRAEDTAVYYCATGWGRSSDYDPPGQGTLVTVSS |  |  |  |  | 55.3 pM
